Assay results taken from publication PMC9716232.

Molecular target: complement component 3b (C3b) (human) (UniProt P01024)
Assay: SPR; equilibrium: each FH sample injected at 0.0156-2 uM, in duplicate, over 1500 RUs of C3b amine-coupled on a Biacore CM5 sensor chip; fit to a 1:1 equilibrium model (Biacore software)

| Kd | Substance |
| --- | --- |
| 3.16 µM | FH variant Arg53His (from UniProt P08603 19-1231) (natural protein) |
| 6.39 µM | FH variant Arg175Pro (from UniProt P08603 19-1231) (natural protein) |
| 4.21 µM | FH variant Arg567Gly (from UniProt P08603 19-1231) (natural protein) |
| 1.95 µM | FH variant Arg1210Cys (from UniProt P08603 19-1231) (natural protein) |
| 1.7 µM | control factor H (FH) (from UniProt P08603 19-1231) (natural protein) |
